In patent EP4714971A1 (Shanghai Hansoh Biomedical Co., Ltd., dated 2024):
Like-named read-outs stand apart in the source and are kept apart here.

B1: PR3178 (antibody, human IgG1, kappa, V domains shown)
VH: QVQLVQSGAEVKKPGASVKVSCKASGYTFTDYEMHWVRQAPGQGLEWMGGIDPESDNTVYNQKFKGRVTLTEDTSTSTAYMELRSLRSEDTAVYYCTRGDWYFDVWGQGTTVTVSS
VL: DIVMTQSPDSLAVSLGERATINCKSSQSLLNSRTRENYLAWYQQKPGQPPKLLIYWASTRESGVPDRFSGSGSGTDFTLTISSLQAEDVAVYYCGQSYNLFTFGQGTKLEIKR
notes: Humanized, human IgG1, kappa; also called humanized antibody of cAb3009
B2: hSC200 (hSC17.200) (antibody, human IgG1, kappa, V domains shown)
VH: EVQLVQSGAEVKKPGESLKISCKGSGYSFTSSWINWVRQMPGKGLEWMGRIYPGEGDTNYNGNFEGQVTISADKSISTAYLQWSSLKASDTAMYYCTRGLVMDYWGQGTLVTVSS
VL: EIVLTQSPATLSLSPGERATLSCRASQSVDYNGISYMHWYQQKPGQAPRLLIYAASNVQSGIPARFSGSGSGTDFTLTISSLEPEDFAVYYCQQSIEDPPTFGGGTKVEIKR
notes: also called control molecule; control antibody

Key:
[1] = molecular target: T1, SEZ6L-Fc protein (human, UniProt Q9BYH1 29-958, limits assumed); assay: ELISA, coated Fc fusion protein at 1 ug/mL
T1 construct: The construct is not described beyond its name; also called SEZ6L protein; Human SEZ6L1; not shown: Fc
T1 sequence (looked up): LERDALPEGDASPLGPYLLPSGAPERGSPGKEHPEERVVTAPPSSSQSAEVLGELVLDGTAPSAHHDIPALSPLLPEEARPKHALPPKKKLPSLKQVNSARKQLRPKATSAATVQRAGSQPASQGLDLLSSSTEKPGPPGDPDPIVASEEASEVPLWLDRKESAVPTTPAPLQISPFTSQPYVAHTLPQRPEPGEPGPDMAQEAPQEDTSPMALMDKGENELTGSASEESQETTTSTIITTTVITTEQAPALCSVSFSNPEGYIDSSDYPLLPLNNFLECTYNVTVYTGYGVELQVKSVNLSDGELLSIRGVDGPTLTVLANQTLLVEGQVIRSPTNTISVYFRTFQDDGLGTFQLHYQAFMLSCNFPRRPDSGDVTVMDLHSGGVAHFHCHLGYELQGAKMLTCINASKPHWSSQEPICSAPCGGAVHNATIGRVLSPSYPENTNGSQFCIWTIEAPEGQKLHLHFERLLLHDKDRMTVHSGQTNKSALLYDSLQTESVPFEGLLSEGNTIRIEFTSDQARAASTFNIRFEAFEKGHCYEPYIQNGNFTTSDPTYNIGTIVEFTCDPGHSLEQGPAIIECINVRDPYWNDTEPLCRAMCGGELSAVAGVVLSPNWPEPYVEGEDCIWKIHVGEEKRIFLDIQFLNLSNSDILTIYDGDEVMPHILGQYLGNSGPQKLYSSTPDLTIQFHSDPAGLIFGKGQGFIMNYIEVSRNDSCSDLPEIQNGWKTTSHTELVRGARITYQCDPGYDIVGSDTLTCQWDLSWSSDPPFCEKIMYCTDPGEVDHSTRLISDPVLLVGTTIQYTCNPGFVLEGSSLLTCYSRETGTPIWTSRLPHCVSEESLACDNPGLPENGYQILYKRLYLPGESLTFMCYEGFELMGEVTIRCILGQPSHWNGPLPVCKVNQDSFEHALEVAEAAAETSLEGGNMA

[2] = molecular target: T2, SEZ6L2-Fc (human, UniProt Q6UXD5 28-844, limits assumed); assay: ELISA, coated Fc fusion protein at 1 ug/mL
T2 construct: The construct is not described beyond its name; also called SEZ6L2 protein; Human SEZ6L2; not shown: Fc

[3] = molecular target: T3, human SEZ6 expressed on stably transfected CHO-K1 cells (human, UniProt Q53EL9 20-994); assay: flow cytometry on CHO-K1 cells expressing human SEZ6
T3 construct: also called CHO-SEZ6; hSEZ6
T3 sequence: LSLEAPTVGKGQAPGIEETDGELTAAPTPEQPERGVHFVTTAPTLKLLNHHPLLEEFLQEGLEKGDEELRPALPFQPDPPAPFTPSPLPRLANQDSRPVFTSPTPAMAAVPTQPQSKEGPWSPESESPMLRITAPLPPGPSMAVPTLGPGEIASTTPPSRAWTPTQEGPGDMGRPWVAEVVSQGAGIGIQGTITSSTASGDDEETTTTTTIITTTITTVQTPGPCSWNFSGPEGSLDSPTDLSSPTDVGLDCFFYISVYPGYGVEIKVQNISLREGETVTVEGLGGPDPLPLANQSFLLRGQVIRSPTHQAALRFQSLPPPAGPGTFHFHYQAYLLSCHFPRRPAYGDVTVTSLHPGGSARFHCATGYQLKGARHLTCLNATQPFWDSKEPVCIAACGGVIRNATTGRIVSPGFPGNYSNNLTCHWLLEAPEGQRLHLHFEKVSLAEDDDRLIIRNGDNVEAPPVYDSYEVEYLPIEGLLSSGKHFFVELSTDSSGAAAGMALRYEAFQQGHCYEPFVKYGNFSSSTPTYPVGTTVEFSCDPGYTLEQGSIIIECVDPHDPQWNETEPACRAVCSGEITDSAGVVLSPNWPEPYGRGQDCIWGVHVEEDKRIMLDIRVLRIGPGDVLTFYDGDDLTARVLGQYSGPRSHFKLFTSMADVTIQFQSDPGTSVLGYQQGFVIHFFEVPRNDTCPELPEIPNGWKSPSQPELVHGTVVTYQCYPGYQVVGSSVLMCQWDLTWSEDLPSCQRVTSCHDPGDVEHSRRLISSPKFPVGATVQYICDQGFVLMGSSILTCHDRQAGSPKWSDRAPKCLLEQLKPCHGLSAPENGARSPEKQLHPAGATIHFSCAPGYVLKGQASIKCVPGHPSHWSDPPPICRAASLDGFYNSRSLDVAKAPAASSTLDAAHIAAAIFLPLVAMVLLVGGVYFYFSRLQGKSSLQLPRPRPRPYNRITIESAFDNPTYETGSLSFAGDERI

[4] = molecular target: T3, human SEZ6 expressed on stably …; assay: as above; remark: listed apart in the source
[5] = molecular target: T3, human SEZ6 expressed on stably …; assay: as above; remark: listed apart in the source

T2 sequence (Q6UXD5 28-844 limits assumed): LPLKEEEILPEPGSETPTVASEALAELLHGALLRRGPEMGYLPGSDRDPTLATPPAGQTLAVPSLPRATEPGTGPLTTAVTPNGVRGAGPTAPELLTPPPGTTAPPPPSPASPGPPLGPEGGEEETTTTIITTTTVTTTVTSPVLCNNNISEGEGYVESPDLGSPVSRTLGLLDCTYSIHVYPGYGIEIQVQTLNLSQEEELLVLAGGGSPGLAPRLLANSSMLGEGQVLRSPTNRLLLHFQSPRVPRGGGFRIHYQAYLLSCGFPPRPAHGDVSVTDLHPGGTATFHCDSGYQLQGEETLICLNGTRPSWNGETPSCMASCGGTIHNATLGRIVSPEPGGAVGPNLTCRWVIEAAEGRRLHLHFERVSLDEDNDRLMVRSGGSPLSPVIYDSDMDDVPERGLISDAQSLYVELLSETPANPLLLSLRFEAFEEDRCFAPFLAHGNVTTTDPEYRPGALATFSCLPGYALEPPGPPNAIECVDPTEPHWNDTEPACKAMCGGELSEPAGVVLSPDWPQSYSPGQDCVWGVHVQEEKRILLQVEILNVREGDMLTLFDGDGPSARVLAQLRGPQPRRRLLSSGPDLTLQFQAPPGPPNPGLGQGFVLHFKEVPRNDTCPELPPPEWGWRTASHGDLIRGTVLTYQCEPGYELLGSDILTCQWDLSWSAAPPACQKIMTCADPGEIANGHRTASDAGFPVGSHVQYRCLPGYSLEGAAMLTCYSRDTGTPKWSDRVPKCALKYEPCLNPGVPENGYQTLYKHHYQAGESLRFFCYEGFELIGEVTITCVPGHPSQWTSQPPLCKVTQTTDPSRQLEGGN

Binder	binding result [1]	binding result [2]	EC50 [3] [nM]	EC50 [4] [nM]	MFImax [4]	EC50 [5] [nM]	MFImax [5]
B1	no binding (tested: 10 nM)	no binding (tested: 10 nM)					
B2			0.19	0.66	3300	0.21	3940
